Laboratory results from the supplement of paper PMC10126150.
± gives the standard deviation of the averaged measurements.

Test system: ATP
Test: switch fluorescence ratio, 500 uM ATP over buffer (Cy3 cluster intensity, sum of 5 cycles each) (fold (ratio)); higher = stronger signal-on switching upon ATP binding; sequences stand for … in TCGTCGGCAGCGTCAGATGTGTATAAGAGACAGTTTTTTTTTTTTTTTTTTTTTTTTT…TC
Details: aptamer strand: ATP DNA aptamer (quencher-CACCTGGGGGAGTATTGCGGAGGAAGG + anchor), 100 nM annealed; ATP concentration: 500 uM
Summary of the method: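 Imaging in selection buffer was followed by imaging after 15 min with 500 uM ATP at 22 °C, for Cy3-labelled switching-strand clusters annealed to 100 nM quencher-labelled ATP aptamer on a modified Illumina MiSeq flow-cell. Five of these buffer/ATP cycles ran, separated by NaOH stripping and re-annealing. The fluorescence ratio per cluster is summed target-cycle over summed buffer-cycle Cy3 intensity, averaged per switch-domain sequence; clusters outside 100-1000 RFU were removed.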
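Note: ATP exposure 15 min at 22 °C before imaging.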

Sequence | switch fluorescence ratio
CGTTTGGAGG | 1.03 ± 0.016
CGTTTGGCCC | 0.988 ± 0.044
CGTTTGGGCT | 1.023 ± 0.0037
CGTTTGTCCT | 0.9907 ± 0.0036
CGTTTTATCA | 0.9914 ± 0.0074
CGTTTTGGGT | 1.01 ± 0.033
CGTTTTGGTG | 0.9914 ± 0.0052
CGTTTTTACT | 0.99 ± 0.052
CGTTTTTATG | 1.03 ± 0.04
CGTTTTTCTT | 0.958 ± 0.05
CGTTTTTGAT | 0.981 ± 0.04
CGTTTTTGTA | 0.99 ± 0.015
CTAAAAAATT | 1.01 ± 0.022
CTAAAAACTA | 0.978 ± 0.013
CTAAAAGGCG | 1.06 ± 0.04
CTAAACAGGG | 1.03 ± 0.011
CTAAAGAAAG | 0.989 ± 0.013
CTAAAGAGCA | 1.03 ± 0.073
CTAAATGTTT | 1 ± 0.05
CTAAATTTAG | 0.995 ± 0.023
CTAACAATAA | 1.05 ± 0.081
CTAACTGGCA | 1.048 ± 0.009

Sequence | switch fluorescence ratio
CTAACTGTTA | 0.99 ± 0.015
CTAAGAAGGG | 1.05 ± 0.061
CTAAGAGCGC | 1.08 ± 0.064
CTAAGAGGGC | 1.0235 ± 0.00018
CTAAGCGGCG | 0.999 ± 0.026
CTAAGGGGGG | 1.04 ± 0.033
CTAAGGGGTT | 0.991 ± 0.036
CTAAGTAGCC | 1.01 ± 0.015
CTAAGTTTGG | 1.018 ± 0.0037
CTAATAGTTA | 0.972 ± 0.0099
CTAATCCACT | 1.028 ± 0.004
CTAATCGGTC | 0.874 ± 0.029
CTAATGAGTT | 0.999 ± 0.03
CTAATGATGG | 1.01 ± 0.056
CTAATGTGTC | 1.02 ± 0.088
CTAATTGAAC | 1.009 ± 0.0032
CTAATTTACG | 1.06 ± 0.028
CTAATTTGGT | 1.01 ± 0.016
CTACGAGGTA | 1.045 ± 0.0027
CTACGCCTGG | 1.66 ± 0.044
CTACGGAGGG | 1.06 ± 0.023
CTACGTAATG | 3.16 ± 0.27

Sequence | switch fluorescence ratio
CTACTACTGA | 1.08 ± 0.015
CTAGAAAGTT | 0.9778 ± 0.0029
CTAGATATGT | 0.99 ± 0.011
CTAGATTCGC | 0.984 ± 0.025
CTAGATTGGG | 1.015 ± 0.0043
CTAGCATGAT | 1.03 ± 0.061
CTAGCCATTG | 0.995 ± 0.022
CTAGGCTAAT | 1.014 ± 0.01
CTAGGGCGCC | 0.975 ± 0.012
CTAGGGGGCG | 0.992 ± 0.058
CTAGGGGGGG | 0.988 ± 0.021
CTAGGGGTAC | 1.16 ± 0.17
CTAGGTATAG | 1.006 ± 0.0072
CTAGGTCGGA | 1.01 ± 0.021
CTAGGTGACG | 1.004 ± 0.0075
CTAGGTGTGT | 1.02 ± 0.051
CTAGGTTAAA | 0.988 ± 0.023
CTAGGTTGCA | 0.9871 ± 0.0052
CTAGGTTTGG | 1.02 ± 0.033
CTAGTCAATC | 1.7 ± 0.072
CTAGTGAGTG | 0.984 ± 0.036
CTAGTTAAGG | 1.011 ± 0.0048

Sequence | switch fluorescence ratio
CTAGTTAGGG | 0.964 ± 0.02
CTAGTTTTTA | 1.009 ± 0.007
CTATACTTGA | 0.999 ± 0.031
CTATCAACCG | 1.04 ± 0.022
CTATCCATGG | 0.993 ± 0.017
CTATCTCTTG | 1 ± 0.017
CTATGACGTT | 0.998 ± 0.019
CTATGATATT | 0.947 ± 0.042
CTATGATTCG | 1.01 ± 0.023
CTATGATTTA | 0.975 ± 0.027
CTATGGGCCG | 0.972 ± 0.028
CTATGTAGTC | 1.01 ± 0.019
CTATGTGGAG | 0.975 ± 0.033
CTATGTGTGG | 0.976 ± 0.021
CTATTAGGGC | 1.04 ± 0.0026
CTATTGGGAT | 0.98078 ± 0.00046
CTATTGGTTA | 1.01 ± 0.011
CTCAAAGTCT | 1.02 ± 0.012
CTCAACACCT | 1.35 ± 0.048
